The supplement of paper PMC9112550, “Optimization of the antimicrobial peptide Bac7 by deep mutational scanning” (BMC Biology, 2022)

These sequences were tested on Escherichia coli TOP10 (assay: shrunken log2 fold change of peptide-encoding DNA abundance (4.5 h post-induction vs induction); higher = less antimicrobial activity (less host growth inhibition)). Conditions: time post-induction: 4.5 h; library: site-saturation at positions 5, 18, 19, 20.
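Also: peptides expressed intracellularly from a pBAD plasmid library in pooled LB shake-flask culture, induced with 0.3% L-arabinose, DNA abundance read by NGS, three biological replicates, DESeq2 with apeglm shrinkage.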

Sequence	shrunken log2 fold change
RRIRERPPRLPRPRPRPCFTPRP	-0.453
RRIRLRPPRLPRPRPRPDEIPRP	-0.0542
RRIRERPPRLPRPRPRPLMKPRP	-0.502
RRIRMRPPRLPRPRPRPFAMPRP	0.171
RRIRLRPPRLPRPRPRPFVDPRP	0.00121
RRIRNRPPRLPRPRPRPHTKPRP	-0.238
RRIRCRPPRLPRPRPRPCENPRP	0.0291
RRIRMRPPRLPRPRPRPKRMPRP	1.06
RRIRCRPPRLPRPRPRPYTDPRP	-0.431
RRIRWRPPRLPRPRPRPKSLPRP	-0.0933
RRIRIRPPRLPRPRPRPLFTPRP	-0.374
RRIRHRPPRLPRPRPRPSPWPRP	0.0405
RRIRHRPPRLPRPRPRPGVMPRP	-0.0309
RRIRVRPPRLPRPRPRPIDRPRP	-0.0529
RRIRMRPPRLPRPRPRPKAPPRP	1.42
RRIRYRPPRLPRPRPRPLSQPRP	0.0967
RRIRTRPPRLPRPRPRPISIPRP	-0.477
RRIRSRPPRLPRPRPRPYENPRP	-0.229
RRIRIRPPRLPRPRPRPVFQPRP	-0.19
RRIRSRPPRLPRPRPRPETKPRP	0.187
RRIRERPPRLPRPRPRPDNYPRP	-0.0933
RRIRERPPRLPRPRPRPSRHPRP	-0.439

Sequence	shrunken log2 fold change
RRIRLRPPRLPRPRPRPPIYPRP	-0.15
RRIRYRPPRLPRPRPRPHTFPRP	-0.14
RRIRNRPPRLPRPRPRPGDEPRP	0.0115
RRIRKRPPRLPRPRPRPVQHPRP	0.134
RRIRCRPPRLPRPRPRPQDAPRP	0.0575
RRIRYRPPRLPRPRPRPEDKPRP	-0.0222
RRIRARPPRLPRPRPRPTRVPRP	0.343
RRIRHRPPRLPRPRPRPCLAPRP	-0.0627
RRIRVRPPRLPRPRPRPGFQPRP	0.302
RRIRARPPRLPRPRPRPENDPRP	0.085
RRIRTRPPRLPRPRPRPNIWPRP	0.682
RRIRNRPPRLPRPRPRPFDSPRP	-0.303
RRIRCRPPRLPRPRPRPGHHPRP	-0.439
RRIRMRPPRLPRPRPRPEAYPRP	0.036
RRIRERPPRLPRPRPRPQGGPRP	-0.0586
RRIRMRPPRLPRPRPRPGYGPRP	0.148
RRIRNRPPRLPRPRPRPTSVPRP	0.184
RRIRARPPRLPRPRPRPAPYPRP	-0.0625
RRIRFRPPRLPRPRPRPDYRPRP	-0.0359
RRIRERPPRLPRPRPRPEPPPRP	0.595
RRIRQRPPRLPRPRPRPRAIPRP	0.109
RRIRQRPPRLPRPRPRPVQGPRP	0.0162

Sequence	shrunken log2 fold change
RRIRNRPPRLPRPRPRPVATPRP	-0.0503
RRIRGRPPRLPRPRPRPQSEPRP	0.273
RRIRPRPPRLPRPRPRPERTPRP	0.291
RRIRNRPPRLPRPRPRPWCDPRP	-0.365
RRIRHRPPRLPRPRPRPFPLPRP	-0.0682
RRIRGRPPRLPRPRPRPCPKPRP	0.193
RRIRGRPPRLPRPRPRPDQIPRP	0.167
RRIRTRPPRLPRPRPRPSIDPRP	-0.397
RRIRPRPPRLPRPRPRPLQKPRP	-0.0453
RRIRVRPPRLPRPRPRPTMKPRP	-0.461
RRIRKRPPRLPRPRPRPKRQPRP	0.0282
RRIRKRPPRLPRPRPRPNPFPRP	1.91
RRIRSRPPRLPRPRPRPLDVPRP	-0.21
RRIRVRPPRLPRPRPRPAESPRP	0.0613
RRIRPRPPRLPRPRPRPLCGPRP	0.623
RRIRFRPPRLPRPRPRPGDVPRP	-0.014
RRIRYRPPRLPRPRPRPTGGPRP	-0.0407
RRIRCRPPRLPRPRPRPPNMPRP	-0.302
RRIRWRPPRLPRPRPRPDLNPRP	0.392
RRIRCRPPRLPRPRPRPKLPPRP	-0.0559
RRIRRRPPRLPRPRPRPALKPRP	0.366
RRIRCRPPRLPRPRPRPCGDPRP	0.0996

Sequence	shrunken log2 fold change
RRIRNRPPRLPRPRPRPFNLPRP	-0.207
RRIRRRPPRLPRPRPRPKTPPRP	0.782
RRIRRRPPRLPRPRPRPDHMPRP	-0.0178
RRIRTRPPRLPRPRPRPLRHPRP	0.252
RRIRPRPPRLPRPRPRPPNDPRP	0.111
RRIRQRPPRLPRPRPRPEKNPRP	0.172
RRIRHRPPRLPRPRPRPGWKPRP	0.0976
RRIRQRPPRLPRPRPRPNLCPRP	-0.00174
RRIRLRPPRLPRPRPRPDVYPRP	-0.0227
RRIRQRPPRLPRPRPRPTAIPRP	-0.248
RRIRDRPPRLPRPRPRPDSLPRP	0.0462
RRIRFRPPRLPRPRPRPQAIPRP	0.043
RRIRFRPPRLPRPRPRPCDRPRP	-0.179
RRIRTRPPRLPRPRPRPQYVPRP	-0.336
RRIRPRPPRLPRPRPRPQFWPRP	0.249
RRIRTRPPRLPRPRPRPTLFPRP	-0.113
RRIRTRPPRLPRPRPRPCKPPRP	-0.996
RRIRARPPRLPRPRPRPIVRPRP	-0.146
RRIRPRPPRLPRPRPRPEWGPRP	0.42
RRIRIRPPRLPRPRPRPFGAPRP	-0.143
RRIRVRPPRLPRPRPRPCAVPRP	0.218
RRIRYRPPRLPRPRPRPCVTPRP	-0.000683

Sequence	shrunken log2 fold change
RRIRIRPPRLPRPRPRPVLEPRP	0.0298
RRIRPRPPRLPRPRPRPYLWPRP	-0.769
RRIRERPPRLPRPRPRPKCQPRP	-0.178
RRIRYRPPRLPRPRPRPITTPRP	0.0271
RRIRHRPPRLPRPRPRPFRMPRP	-0.625
RRIRQRPPRLPRPRPRPGFYPRP	0.116
RRIRLRPPRLPRPRPRPPGMPRP	0.197
RRIRDRPPRLPRPRPRPDHAPRP	-0.00822
RRIRCRPPRLPRPRPRPMFRPRP	-0.179
RRIRTRPPRLPRPRPRPDTTPRP	-0.0469
RRIRQRPPRLPRPRPRPSSWPRP	-0.0176
RRIRARPPRLPRPRPRPFDTPRP	-0.333
RRIRGRPPRLPRPRPRPSENPRP	0.359
RRIRGRPPRLPRPRPRPSHSPRP	0.0319
RRIRFRPPRLPRPRPRPMWEPRP	-0.232
RRIRCRPPRLPRPRPRPHPCPRP	-0.579
RRIRWRPPRLPRPRPRPQMPPRP	0.135
RRIRVRPPRLPRPRPRPRQSPRP	0.181
RRIRSRPPRLPRPRPRPCYNPRP	-0.513
RRIRARPPRLPRPRPRPGAWPRP	0.259
RRIRGRPPRLPRPRPRPMDRPRP	0.156
